Patent US12723100

What was measured:
[1] = biological target: full-length human Nectin-4 on cells (human) (UniProt Q96NY8); test: cell-based or functional assay
[2] = biological target: full-length human Nectin-4 on cells (human) (UniProt Q96NY8); test: flow cytometry, CHO-Nectin-4 cells
[3] = biological target: human recombinant Nectin-4 protein (extracellular domain) (human) (UniProt Q96NY8); test: ELISA, recombinant human Nectin-4 coated on plate
[4] = biological target: full-length human Nectin-4 on cells (human) (UniProt Q96NY8); test: flow cytometry, SKBR3 cells (endogenous Nectin-4)
[5] = biological target: full-length human Nectin-4 on cells (human) (UniProt Q96NY8); test: flow cytometry competition on CHO-Nectin-4 cells; competitor biotinylated human Nectin-1-His

B1: Positive Control 1 (PC1), in-house Nectin-4-specific antibody based on Enfortumab (AGS-22 M6) (antibody, INN chains, looked up, V domains shown)
VH: EVQLVESGGGLVQPGGSLRLSCAASGFTFSSYNMNWVRQAPGKGLEWVSYISSSSSTIYYADSVKGRFTISRDNAKNSLSLQMNSLRDEDTAVYYCARAYYYGMDVWGQGTTVTVSS
VL: DIQMTQSPSSVSASVGDRVTITCRASQGISGWLAWYQQKPGKAPKFLIYAASTLQSGVPSRFSGSGSGTDFTLTISSLQPEDFATYYCQQANSFPPTFGGGTKVEIKR
B1 was tested, and the Endocytosis EC50 (cell killing with MMAF-conjugated Fab anti-hFc), Nectin-4-CHO cells [1] was 0.33 nM, the Endocytosis EC50 (cell killing with MMAF-conjugated Fab anti-hFc), SKBR3 cells [1] was 0.39 nM and the EC50 [2] was 0.04 nM. The EC50 [3] was 0.34 nM, the EC50 [4] was 0.07 nM and the EC50 [5] was 0.16 nM.
